We go through three substances from patent publication US20050287527A1, “Quantitative ranking of transient ligand binding to target biomolecules” (National Research Council of Canada, priority 2002, published 2005).

Where only a bound is given, the exact number is not on record here.

Assay [1] addresses T1, human prothrombin (Homo sapiens, UniProt P00734). The note with it: binding with human prothrombin; previous reports; cited from earlier work.
Assay [2] deals with T1, human prothrombin. The assay is described as follows: 15N CPMG NMR relaxation dispersion of peptide ligand with human prothrombin, fitting of koff. It counts as binding.
Description: Dried powder of the purified peptide was weighed using a Sartorius Supermicro S4™ balance and dissolved at ˜1.5 mM in an aqueous solution (10% D2O) that was 50 mM in NaCl and 50 mM in sodium phosphate at pH 5.5. Carefully measured volume aliquots of human prothrombin at a stock concentration of 0.3 mM were added to the peptide solution to produce molar ratios of ˜1:45, ˜1:35, and ˜1:30 for the prothrombin and peptide concentrations, respectively.
The core of the NMR relaxation dispersion measurements is the relaxation-compensated CPMG pulse scheme (FIG. 1) (Millet, O., Loria, J. P., Kroenke, C. D., Pons, M., and Palmer, A. G. (2000) J.Am.Chem.Soc. 122, 2867-2877; and Loria, J. P., Rance, M., and Palmer, A. G. (1999) J.Am.Chem.Soc. 121, 2331-2332). A train of ^15N 180° pulses with a separation of 1 ms is applied at 100 ppm off the center of the HSQC spectrum at the beginning of the recycle delay d1 such that the total number of ^15N 180° pulses, 4N, is kept the same for all experiments with different CPMG pulse repetition rates. An XY-16 180° pulse train (Gullion, T., Baker, D. B., and Conradi, M. S. (1990) J.Magn.Reson. 89, 479-484) is also applied to both the ^1H and ^15N nuclei during the two INEPT periods, which limits the decay of exchange-broadened ligand resonances. Further enhancement in sensitivity was achieved by using the 3919 WATERGATE sequence for water suppression (Piotto, M., Saudek, V., and Sklenar, V. (1992) J.Biomol.NMR 2, 661-665). The 90° and 180° RF pulses are represented by narrow and wide bars, respectively, applied along the +X axis unless specified otherwise. The open rectangles are water-selective soft pulses with duration of 2 ms. During data acquisition, ^15N decoupling is achieved using a GARP sequence (Shaka, A. J., Barker, P. B., and Freeman, R. (1985) J.Magn.Reson. 64, 547-552) with an RF field of 1.0 kHz (at 500 MHz) or 1.2 kHz (at 800 MHz). The delays are: Δ=2.7 ms, τ=1 ms, d2=d1-4(N-n)τ and τCPMG=(T/4n−pw180N), where T is the total duration of the ^15N CPMG pulse train and pw^180N is the width of the ^15N 180° pulse. Sinebell-shaped gradient pulses with a duration of 1 ms are used with gradient strengths of g1=5 G/cm, g2=6 G/cm, g3=1.2 G/cm, g4=6 G/cm, and g5=10 G/cm. The phases of some RF pulses are the same as those reported previously with φ1=+X−X, φ2=4(+X) 4(−X) and φ3=2(+X) 2(+Y) 2(−X) 2(−Y) (Millet, O., Loria, J. P., Kroenke, C. D., Pons, M., and Palmer, A. G. (2000) J.Am. Chem. Soc. 122, 2867-2877), except that the phases for the last ^15N 90° pulse, the WATERGATE sequence and the RF receiver are cycled as φ4=4(+X) 4(−X), φ5=8(+X) 8(+Y), φ6=8(−X) 8(−Y) and receiver=(+X−X−X+X) 2(−X+X+X−X) (+X−X−X+X). Phase-sensitive ^1H—^15N HSQC spectra were obtained by incrementing φ4, according to the States-TPPI scheme (Marion, D., Ikura, M., Tschudin, R., and Bax, A. (1989) J.Magn.Reson. 85, 393-). […] NMR data were collected at ^15N frequencies of 50.684 and 81.076 MHz using Bruker Avance/DRX 500 and 800 MHz NMR spectrometers. The total length of the ^15N CPMG pulse train, T (FIG. 1), is kept at a constant value of 40 ms and the total number (4N) of the ^15N CPMG 1800 pulses was set to 100.
For the specific application herein, values for koff, kon′, koff^1, koff^2, kon^−1, k1, k2, R2b(500 MHz), R2b(800 MHz), δωb, δωb1 and δωb2 (FIG. 2) were fitted as independent variables. Values kon^−2, pb, pb1, pb2, and pf=(1−pb1−pb2), with p standing for the population of the corresponding species, were derived using the condition of microscopic reversibility kijpi=kjipj, where kij denotes the exchange rate constant for the transformation of species i into species j.
Assay [3] deals with T2, thrombin (Homo sapiens, UniProt P00734). The following applies: cited from earlier work.
The target in assay [4] is T2, thrombin. The assay is described as follows: Inhibition of human thrombin. The following applies: bivalent inhibitor of human thrombin. It counts as biochemical.
The target of assay [5] is T2, thrombin. Kind of assay: Proteolytic cleavage of FD22 by active thrombin. Type of assay: biochemical. Also on record: in complex with human α-thrombin. The following applies: peptide ~0.9 mM, 50 mM sodium phosphate, 0.2 mM EDTA, pH 5.5, active thrombin added. The method, then:
Titration of the thrombin-cleaved FD22 peptide was carried out as follows. The sample of FD22 was concentrated by Speed-Vac to 40 μl and 180 μl of a concentrated thrombin solution were added to give a final thrombin:peptide ratio of approximately 1:20 in 60 mM sodium phosphate buffer, 0.2 mM EDTA, 10% D2O, at pH 5.5. Additional steps of thrombin titrations were carried out by the addition of the human […]-thrombin concentrated to ˜8 mg/ml.
FD22 has the sequence of Phe-Asp45-Pro-Arg-Pro-Gln-Ser50-His-Asn-Asp-Gly-Asp55-Phe-Glu-Glu-Ile-Pro60-Glu-Glu-Tyr-Leu-Gln65 (SEQ ID NO:20) and binds to thrombin via both the anion-binding exosite-I and the catalytic active site. The addition of active thrombin to the peptide FD22 (dissolved at a concentration of ˜0.9 mM in 50 mM sodium phosphate buffer, 10% D2O, 0.2 mM EDTA, at pH 5.5), caused slow and specific proteolytic cleavage at the Arg47-Pro48 peptide bond (taking >60 hours for the cleavage to complete). Upon completion of the cleavage, the sample contains a mixture of two peptides, Phe-Asp45-Pro-Arg (FD22-N) (SEQ ID NO:17) and Pro-Gln-Ser50-His-Asn-Asp-Gly-Asp55-Phe-Glu-Glu-Ile-Pro60-Glu-Glu-Tyr-Leu-Gln65 (FD22-C) (SEQ ID NO:18) that should bind separately to the active site and the anion-binding exosite I of thrombin.

Assay [6] has as its target T3, human α-thrombin (Homo sapiens, UniProt P00734).
T3 construct: in complex with human α-thrombin
The assay is described as follows: 15N CPMG NMR relaxation dispersion of peptide ligand with human thrombin, fitting of koff. The following applies: 288 K, two-site exchange. Type of assay: binding.

[7] abbreviates: "linear" three-site exchange model, Phe56, Glu57, Ile59 simultaneously.
The mark [8] stands for this setting: general ("full") three-site exchange, Phe56, Glu57, Ile59 simultaneously.
Where [9] appears, read: residue Glu57, "linear" three-site exchange model, exchange between bound states.

Regarding “N-acetyl-*Asp-*Phe-*Glu-*Glu-*Ile-Pro-Glu-Glu-Tyr-Leu-Gln [N-acetyl-Hir(55-65), anti-thrombin peptide]”, the Kd in assay [1] is 100 to 300 µM. For the same substance, in assay [2] (setting [7]), the k1 came out at 560 ± 510 s⁻¹ and the “kex=k1+k2” value is listed as 700±500 s^1. Moreover, in assay [2] (setting [8]), the k1 stood at 66 ± 57 s⁻¹, the k2 is 110 ± 130 s⁻¹ and the “kex=k1+k2” value was determined as 180 ± 150 s⁻¹. Moreover, in assay [2] (setting [9]), the k1 is 50 ± 30 s⁻¹ and the k2 came to 150 ± 70 s⁻¹. In assay [3], the “affinity for human thrombin compared with the same site on human prothrombin” value is “higher affinity”.
Turning to “Phe-Asp45-Pro-Arg-Pro-Gln-Ser50-His-Asn-Asp-Gly-Asp55-Phe-Glu-Glu-Ile-Pro60-Glu-Glu-Tyr-Leu-Gln65 (FDPRPQSHNDGDFEEIPEEYLQ; Anti-thrombin peptide) [FD22]”, the IC50 in assay [4] was approximately 0.02 µM. Moreover, the “time for the cleavage at the Arg47-Pro48 peptide bond to complete” value in assay [5] was more than 60 h.
As for “Pro-Gln-Ser50-His-Asn-Asp-Gly-Asp55-Phe-Glu-Glu-Ile-Pro60-Glu-Glu-Tyr-Leu-Gln65 (PQSHNDGDFEEIPEEYLQ; Anti-thrombin peptide) [FD22-C]”, the off-rate (koff) in assay [6] (residue Leu64 (FD22-C fragment), simultaneous fit at three α-thrombin concentrations) was approximately 400 s⁻¹; in assay [6] (residue Phe56 (FD22-C fragment), highest α-thrombin concentration only) it was approximately 400 s⁻¹; in assay [6] (residue Tyr63 (FD22-C fragment), simultaneous fit at three α-thrombin concentrations) it was approximately 100 s⁻¹.
